Test results reported in PMC8395503, “Epitope Mapping of Monoclonal Antibodies to Calreticulin Reveals That Charged Amino Acids Are Essential for Antibody Binding” (Antibodies, 2021).

Biological target: the molecule itself
Test: native gel or EMSA; native PAGE, 4-20% Tris-glycine gel, native running buffer pH 7.5, Coomassie staining; samples in native sample buffer heated 10 min at 57 °C (recombinant CRT with or without 3 days at 42 °C)

Row | Protein | binding result
1 | full-length recombinant wild-type calreticulin (natural protein, human, UniProt P27797 18-417, looked up, calreticulin, human, Prot id P27797; called full-length recombinant wt CRT; Oligomers formed after heat treatment (57 °C 10 min, with or without 42 °C for 3 days); also called CRT; wt CRT; source: recombinant, produced using standard protocols and purified as previously described by Čiplys and colleagues [39]) EPAVYFKEQFLDGDGWTSRWIESKHKSDFGKFVLSSGKFYGDEEKDKGLQTSQDARFYALSASFEPFSNKGQTLVVQFTVKHEQNIDCGGGYVKLFPNSLDQTDMHGDSEYNIMFGPDICGPGTKKVHVIFNYKGKNVLINKDIRCKDDEFTHLYTLIVRPDNTYEVKIDNSQVESGSLEDDWDFLPPKKIKDPDASKPEDWDERAKIDDPTDSKPEDWDKPEHIPDPDAKKPEDWDEEMDGEWEPPVIQNPEYKGEWKPRQIDNPDYKGTWIHPEIDNPEYSPDPSIYAYDNFGVLGLDLWQVKSGTIFDNFLITNDEAYAEEFGNETWGVTKAAEKQMKDKQDEEQRLKEEEEDKKRKEEEEAEDKEDDEDKDEDEEDEEDKEEDEEEDVPGQAKDEL | binds
2 | calreticulin purified from human placenta (natural protein, UniProt P27797 18-417, looked up, calreticulin, human, Prot id P27797, purified from placenta; Heat-treated (57 °C 10 min) before native PAGE; also called CRT; human CRT purified from human placenta; source: purified from human placenta) EPAVYFKEQFLDGDGWTSRWIESKHKSDFGKFVLSSGKFYGDEEKDKGLQTSQDARFYALSASFEPFSNKGQTLVVQFTVKHEQNIDCGGGYVKLFPNSLDQTDMHGDSEYNIMFGPDICGPGTKKVHVIFNYKGKNVLINKDIRCKDDEFTHLYTLIVRPDNTYEVKIDNSQVESGSLEDDWDFLPPKKIKDPDASKPEDWDERAKIDDPTDSKPEDWDKPEHIPDPDAKKPEDWDEEMDGEWEPPVIQNPEYKGEWKPRQIDNPDYKGTWIHPEIDNPEYSPDPSIYAYDNFGVLGLDLWQVKSGTIFDNFLITNDEAYAEEFGNETWGVTKAAEKQMKDKQDEEQRLKEEEEDKKRKEEEEAEDKEDDEDKDEDEEDEEDKEEDEEEDVPGQAKDEL | binds
